Laboratory results taken from the nanobody polyreactivity screen of Harvey et al. (2022).

Experiment: yeast display, Sf9 membrane polyspecificity reagent, FACS + sequencing; frameworks hold sequencing errors
In short: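 Sorting gates, low and high (top ~1%), were placed on anti-HA fluorescence to track expression and on streptavidin fluorescence to track reagent binding. A clone's polyreactivity label is taken from the gate it came out of. The reagent was 10% biotinylated, detergent-solubilized Sf9 membrane, applied for 1 hour at 4 °C to galactose-induced yeast display cells.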

Row | Sequence | polyreactivity (PSR sort gate)
1 | QVQLVESGGGLVQAGGSLRLSCAASGRIFQLYAMGWYRLAPGKERELVAVISSGDRTYYADSVKGRFTISRDNAKNTVYLQMNSLKPEDTAVYYCAALGWHSGGSRWHGEYDYWGQGTQVTVSS | low polyreactivity
2 | QVQLQESGGGLVQAGGSLRQSYAASGYIFPSLAMGWYRQAPGKEREFVAAIGRGSTNNYADSVKGRFTISRDNAKNTAYQQMISLKPEDTAVYYCAAAASPLTRHLYWGQGTQVSVSS | low polyreactivity
3 | QVQLVESGGGLVQAGGSLRLSFAASGFTFRNYAKGWYRQAPGKERELVATISRSGCSTYYADSVKGRFTISRDNAKNTVYLQMNSLKPEDTAVYYCAAKTILWKYYPYYYVTYDYWGQGTQVTVSS | high polyreactivity
4 | QVQLVESGGGLVQAGGSLRLSCAASGPTFPFNAMGWYRQAPGKERELVAAISWRDGRTYYADSVKGRFTISRDNAKNTVYLQMNSLKPEDTAVYYCNVVKRRSDWGMDYWGQGTQVTVSS | high polyreactivity
5 | QVQLVESGGGLVQAGGSLRLSCAASGSIFSLYVMGWYRQAPGKERELGAAITSGGRTNYADSVKGRFTISRDNAKNTVYLLMNSLKPEDTAVYDCAARFPSRYGRYGYWGQGTQVTVSS | high polyreactivity
6 | QVQLVESGGGLVQAGGSLRLSCAASGYTFFYYAMGWYRQAPGKERELVASISWNGGSTYYADSVKGRFTISRDNGKNTVYLQMNSLKPEDTAVYYCAADSPRPRLTSYGYIGGEYYYWGQGTQVTVSS | low polyreactivity
7 | QVQLVESGGGVVQAGGSLRLSWAASGFIFAVYAMGWYRQSTGKERELVAAITFDGDTTYYADSVKGRFTISRDNANNTVYLQMKILKPDTAVYYCAAEYIKYLWYLHVDYWGQGTQVTVSS | low polyreactivity
8 | QVHLVESGGGLVQAGGSLRLICAAYRRTLGGNAMGWYRQAPGKERELVAPITHSASTYADSVKGRFTISRDNAKNTVYLQMNSLKPEDTAVYYCNAPDPSDQHGDYWGQGTQVTVSS | low polyreactivity
9 | QVQLVESGGGLVQAGGSLRLSCAASGRIFTLYAMGWYRQAPGKEREFVAAINRGGSTNYADSVKGRFTISRDNAKNTVYLQMNSLKPEDTAVYYCAAKTTSRFRTYSYDYWGQGTQVTVSS | high polyreactivity
10 | QVQLVESVGGLVQAGGSLRLSCAASGSTFVIYAMGWYRQAHGKERELVAAISGRTGSTYYADSVKGRFTISRDNAKNTVYLQMNSLKPEDTAVYYCAAYKRSGLKYGHWGQGTQVTVSS | high polyreactivity
11 | QVQLVESGGGLVQAGGSLRLSCAASGSIFYLYAMGWYRQAPGKERELVADITITGGSTYYADSVKGRFTISRDNAKNTVYLQMNSLKPEDTAVYYCAADEFWFTYRYDYWGQGTQVTVSS | high polyreactivity
12 | QVQLVDSGGGLVQAGGSLRLSCAASGSTFYYNAMGWYRQAPGKERELVARISRSGGSTYADSVKGRFTISRDNAKNTVYLQMNSMKPEDTAVYYCNAVAYGTPEFTSYAVRYDYWGQGTQVTVSS | low polyreactivity
13 | QVQLVESGGGLVQAGGSLRLSCAASGSTFGWYAIGWNRQAPGKERELVAAINSDGSTYYADSVKGRFTISRDNAKNNVYLQMNSLKPEDPAVYYCATDDALYGYLYHNYGYWGEGTQVTVSS | low polyreactivity
14 | QVQLVESGGGLVQAGGSLRLSCAASGRIFKLYAMGWYRQAPGKERELGAAISTSAGSTNYADSEKGRFTISRDNAKNTVYLQMNSLKPEDPAVYYCAVAGVSTYYTYYYWGQGTQVTVSS | low polyreactivity
15 | QVQLVESGGGLVQAGGSLRLSCAASGSIFPLNAMGWYRQAPGKERELVATISWRGGITYYADSVKGRFTISRDNAKNTVYLQMNSLKPEDTAVYYCATVGRWNSLWYRYRYDYWGQGTQVTVSS | low polyreactivity
16 | QVQLQESGGGLVQAGGSLRLICAASGYISSWYPMGWYRQAPGKEREFVGTIAPGATTYYADSVKGRFTIIRDYEKNTVYLQMNSLKPEDTAVYYCAAGPENNDFYSYWGQGTQVTVSS | low polyreactivity
17 | QVQLVESGGGLVQAGGSLRLSCAASGSTFLYYAMGWYRQAPGKERELVARITTRVGRTYYADSVKGRFTISRDNAKNTVYLQMNSLKPEDTAVYYCATGGSKEMDYWGQGTQVTVSS | high polyreactivity
18 | QVQLVESGGGLVQAGGSLRLSCAASGFIFSNNAMGWYIEAPGKERELVAVINGGGSTYYADSVKGRFTISRDNAKNTVYLQMNSLKPEDTAVYYCARKSWPKEGRVDPGYDYWGQGTQVTVSS | low polyreactivity
19 | QVQLVESGGGLVQAGGSLRLSCAASGSTLNRNVMGWYRQAPGKEREFVAVITYGVGSTYYADSVKGRFTISRDNAKNTVYLQMNSLKPEDTAVYYCNKDPLVFDYWGQGTQVTVSS | low polyreactivity
20 | QVQLVESGGGLVQAGGSLRLSCAASGSTFWAYVMGWYRQAPGKERELVAAISKSGVRTHYADSVKGRFTISRDNAKNTVYLQMNSLKPEDNAVYYCAAGGVGNLDDYWGQGTQVTVSS | high polyreactivity
21 | QVQLVESGGGLVQSGGSLRLSCAASGYIFGYYAMGWYRQAPGKERELVADITWRGDSTYADSVKGRFTISRDNAKNTVYLQMNSLKPEDTAVYYCAADIATEYWYTGYDHWGQGTQVNVSS | low polyreactivity
22 | QVQLVESGGGLVQAGGSLRLSCAASGITFRGYAMGWYRQAPGKERELVADITWNGGSTYYADSVKGRFTISRDNAKNTVYLQMNSLKPEDTAVYYCAADGYPIYWSSYRFYYWGQGTQVTVSS | high polyreactivity

Row | Sequence | polyreactivity (PSR sort gate)
23 | QVQLVESGGGLVQAGGSLRLSCAASGFIFYQYAMGWYRQAPGKERELVAAISRRGGGTYYADSVKGRFTISRDNAKNTVYLQMNSLKPEDTAVYYCNTDRLARITFGGYDYWGQGTQVTVSS | high polyreactivity
24 | QVQLVESGGGLVQAGGSLRLSCAASGRIFPGYAMGWYRQAPGKERELVASISSGGRTYYADSVKGRFTISRDNAKNTVYLQMNSLIPEDTAVYYCNSRHSSYSFRYDYWGQGTQVTVSS | low polyreactivity
25 | QDQLVESGGGLVQAGGSLRLSCAASGRTFGVNAMGWYRQAPGKERELVASIRWNGGSTYYADSVKGRFTISRDNAKNTVYFQMNSLKPEDTAVYYCNAVRRYRSREFDYWGQGTQVNVSS | low polyreactivity
26 | QVQLVESGGGLVQAGGSLRLSCAASGRIFGSNTLGWYRQAPGKEREMVAAISRRGGSTYYADSVKGRFTISRDNAKNTVYLQINSLKPEDTAVYYCAAVGTGSSLRYDYWGQGTQVTVSS | high polyreactivity
27 | QVQLVESGGGLVQAGGSLRLSCAASGSTFSPYAMGWYRQAPGKERELVAGITGNGGSTRYADSVKGRFTISRDNAKNTVYLQMNSLKPEDTAVYYCAARWTRQRYRTSYYSWGQGTQVTVSS | high polyreactivity
28 | QVQLQESGGGLVQAGGSLRLSCAASGSISLGDNMGWYRQAPGKEREFVATISVGGITYYVDSVKGRFTISRDIAKNTVYLQMNSLKPEDTAVYYCAALDIYYFRYYYWGQGTQVTVSS | low polyreactivity
29 | QVQLVESGGGLVQAGGSLRLSCAASGSTFYPYAMGWYRQAPGKEREFVAAIRSSGTSTYYADSVKGRFTISRDNAKNTVYLQMNSLKPEDTEVYYGAARVRGDSVSRTKPASIGGGSWGQGTQVTVSS | high polyreactivity
30 | QVQLVETGGGLVQAGGSLRLSCAASGSTFVYYAMGWYRQAPGKERELVAAISSGGNTKYADSVKGRFTISRDNAKNTVYLQMNSLKPEDTEVYYCARESQSYYDHDYWGQVTQVTVSS | low polyreactivity
31 | QVQLVESGGGLVQAGGSLRLSCAASGSTFWFYAMGWYRQAPGKERELDAAISNGDSTNYADSVKGRFTISRDNAKNTVYLQMNSLKPEDTAVYYCAADQVYGIGYEYWGQGTQVTVSS | low polyreactivity
32 | QVQLVESGGGLVQAGGSLRLSCAASGRTFPYNAMGWYRQAPGKERELVAAISYSGGRTYYADSVKGRFTISRDNAKNTFYLQMNSLKPEDTAVYYCNALGSGREDDYWGQGTQVTVSS | high polyreactivity
33 | QVQLVESGGGLVQAGGSLRLSCAASGITFWHNTMGWYRQAPGKERELVAAISWTGGRTYYADSVKGRFTISRDNAKNTVNFQMNSLNPEDTAVNYCAADFSWTPSGNYDSWGQGTQVTVSS | low polyreactivity
34 | QVQLVESCGGLVQAGGSLRLSCAASGSTFRYNAMGWYRQAPGKERELVAAISWSGGSTYYADSVKGRFTISRDNAKNTVYLQMNSLKPEDTAVYYCAKVYFWGALSPDKFDEDYWGQGTQVTVSS | low polyreactivity
35 | QVQLVESGGGLVQAGGSLRLSCAASGSIFGFNAMGWYRQAPGKERELVAAISSGGITNYADSVKGRFTISRDNAKNTVSLQMNSLKPEVTAVYYCAAASESNWSFNYWGQGTQVTVSS | low polyreactivity
36 | QVHLVESGGGLVQAGGSLRLSCAASGRIFGAYTMGWYRQAPGKERELVAAIAGRTYYADSVKGRFTISRDNAKYTVYLQMNSLKPEETAVYYFADRYKSRNYDYWGQGTQVTVSS | high polyreactivity
37 | QVQLVESGGGLVQAGGSLRLSCAASGFTSWYAMGWYRQAPGKERELVAAISSGGSTNYADSVKGRFTISRDNAKNTVYLQLNSLKPEDTAVYYCNAEGYETGVPYFGFYFWGQGTQVTVSS | low polyreactivity
38 | QVHPVESGGGLVQAGGSLRLSCAASGGILYRNAMGWYRQAPGKERELVAAISSRGGSTYYADSVKGRFTISRDNAKNTVYLQMNSLKPEDTAVYYCAVVNRSAQSLKYEYWGQGTQVTVSS | high polyreactivity
39 | QVQLVESGGGLVQAGGSLRLSCAASGFTFAGNAMGWYRQAPGKERELVAAISRRGGSTYYADSVKGRFTISRDNAKNTVYLQMNSLKPEDTAVYYCAAVYPYDYDYWGQGTQVTVSS | high polyreactivity
40 | QVQLVESGGGLVQAGGSLRLSCDASGRTFGLNAMGWYRQAPGKERDLVAAISSSGGSTYYADSVKWRFTISRDNAKNTVYLQMNRLKPEDNAVYYCAKVLYRYGNDYYYWGQGTQVTVSS | high polyreactivity
41 | QVKLVESGGGIVQAGGSLRLSCAASGRIFYSNVMGWYRQAPGKERELVATISGSSGRTYADSVKGRFTISRDNAKNTVYLQMNSLKPEDTAVYYCAADSPSVWGYRYDYDYWGQGTQVTVSS | low polyreactivity
42 | QVQLVESGGGIVQAGGSLRLSCAASGRSFGIYAMGWYRQAPGKERELVAGITRGDRTFAYSVKGRFTISRDNAKNTVYLQMNSLKPEDTAVYYCNADVYPYKLALPAGMGYWGQGTQVTVSS | high polyreactivity
43 | QVQLEESAGGLVQAGGSLRLSCAASGRIFVRNAMGWYRQAPGKERELVADITNGGSTNYADSVKGRFTISRDNAKNTVYLQMNSLKPEDTAVYYCAATYPYSWVYSGYYYWGHGTQVTVSS | low polyreactivity
